Measured values reported in PMC3823645.

Molecular target: Ancylostoma ceylanicum phytochelatin synthase (Ancylostoma ceylanicum)
Assay: SEC

stoichiometry N: 2
Substance: Ancylostoma ceylanicum phytochelatin synthase (enzyme)
